Measurements as given in patent US20220048967A1 (published 2022).
Changes are numbered by the printed parent chain. Numbered stars: 1 amine (or outer) side, 2 acyl side, 3 side chain; on linkers, the order of the positions; unused ones are H or OH. Square brackets hold non-standard residues; d marks the D form. Side chains are listed from the residue outwards. Ends that are not written are not given here. * marks the point of attachment. C20 diacid = O=C(O)CCCCCCCCCCCCCCCCCCC(=O)*; C18 diacid = O=C(O)CCCCCCCCCCCCCCCCC(=O)*; γGlu = O=C(O)[C@H](CCC(=O)[*:2])N[*:1]; AEEA = NCCOCCOCC(=O)O; Aib = CC(C)(N)C(=O)O

B1: Example 316 (peptide)
peptide: Y[Aib]EGTFTSDYSILLDKK([AEEA-AEEA-γGlu-C18 diacid])AQ[Aib]AFIEYLIAGGPSSGAPPPS-NH2
modifications: N-terminus assumed
SMILES: CC[C@H](C)[C@H](NC(=O)[C@H](CC(C)C)NC(=O)[C@H](Cc1ccc(O)cc1)NC(=O)[C@H](CCC(=O)O)NC(=O)[C@@H](NC(=O)[C@H](Cc1ccccc1)NC(=O)[C@H](C)NC(=O)C(C)(C)NC(=O)[C@H](CCC(N)=O)NC(=O)[C@H](C)NC(=O)[C@H](CCCCNC(=O)COCCOCCNC(=O)COCCOCCNC(=O)CC[C@H](NC(=O)CCCCCCCCCCCCCCCCC(=O)O)C(=O)O)NC(=O)[C@H](CCCCN)NC(=O)[C@H](CC(=O)O)NC(=O)[C@H](CC(C)C)NC(=O)[C@H](CC(C)C)NC(=O)[C@@H](NC(=O)[C@H](CO)NC(=O)[C@H](Cc1ccc(O)cc1)NC(=O)[C@H](CC(=O)O)NC(=O)[C@H](CO)NC(=O)[C@@H](NC(=O)[C@H](Cc1ccccc1)NC(=O)[C@@H](NC(=O)CNC(=O)[C@H](CCC(=O)O)NC(=O)C(C)(C)NC(=O)[C@@H](N)Cc1ccc(O)cc1)[C@@H](C)O)[C@@H](C)O)[C@@H](C)CC)[C@@H](C)CC)C(=O)N[C@@H](C)C(=O)NCC(=O)NCC(=O)N1CCC[C@H]1C(=O)N[C@@H](CO)C(=O)N[C@@H](CO)C(=O)NCC(=O)N[C@@H](C)C(=O)N1CCC[C@H]1C(=O)N1CCC[C@H]1C(=O)N1CCC[C@H]1C(=O)N[C@@H](CO)C(N)=O
B2: Example 288 (peptide)
peptide: Y[Aib]EGTFTSDYSILLDKK([AEEA-AEEA-γGlu-C20 diacid])AQ[Aib]AFIEYLIAGGPSSGAPPPS-NH2
modifications: N-terminus assumed
SMILES: CC[C@H](C)[C@H](NC(=O)[C@H](CC(C)C)NC(=O)[C@H](Cc1ccc(O)cc1)NC(=O)[C@H](CCC(=O)O)NC(=O)[C@@H](NC(=O)[C@H](Cc1ccccc1)NC(=O)[C@H](C)NC(=O)C(C)(C)NC(=O)[C@H](CCC(N)=O)NC(=O)[C@H](C)NC(=O)[C@H](CCCCNC(=O)COCCOCCNC(=O)COCCOCCNC(=O)CC[C@H](NC(=O)CCCCCCCCCCCCCCCCCCC(=O)O)C(=O)O)NC(=O)[C@H](CCCCN)NC(=O)[C@H](CC(=O)O)NC(=O)[C@H](CC(C)C)NC(=O)[C@H](CC(C)C)NC(=O)[C@@H](NC(=O)[C@H](CO)NC(=O)[C@H](Cc1ccc(O)cc1)NC(=O)[C@H](CC(=O)O)NC(=O)[C@H](CO)NC(=O)[C@@H](NC(=O)[C@H](Cc1ccccc1)NC(=O)[C@@H](NC(=O)CNC(=O)[C@H](CCC(=O)O)NC(=O)C(C)(C)NC(=O)[C@@H](N)Cc1ccc(O)cc1)[C@@H](C)O)[C@@H](C)O)[C@@H](C)CC)[C@@H](C)CC)C(=O)N[C@@H](C)C(=O)NCC(=O)NCC(=O)N1CCC[C@H]1C(=O)N[C@@H](CO)C(=O)N[C@@H](CO)C(=O)NCC(=O)N[C@@H](C)C(=O)N1CCC[C@H]1C(=O)N1CCC[C@H]1C(=O)N1CCC[C@H]1C(=O)N[C@@H](CO)C(N)=O
B3: Example 315 (peptide)
peptide: YXEGTFTSDYSILLDKKAQXAFIEYLIEGGPSSGAPPPS
modifications: Aib2, K17 conjugated to (2-[2-(2-Amino-ethoxy)-ethoxy]-acetyl)2-(γ-Glu)-CO-(CH2)16-CO2H, Aib20, C-terminal amide (NH2)
B4: Example 329 (peptide)
peptide: B3 peptide with Y1X, F6X
modifications: D-Tyr1, Aib2, αMeF6, K17 conjugated to (2-[2-(2-Amino-ethoxy)-ethoxy]-acetyl)2-(γ-Glu)-CO-(CH2)18-CO2H, Aib20, C-terminal amide (NH2)
B5: Example 327 (peptide)
peptide: B3 peptide with Y1F, L13X
modifications: Aib2, αMeL13, K17 conjugated to (2-[2-(2-Amino-ethoxy)-ethoxy]-acetyl)2-(γ-Glu)-CO-(CH2)18-CO2H, Aib20, C-terminal amide (NH2)
B6: Example 335 (peptide)
peptide: B3 peptide with Y1X, F6X, L13X
modifications: not fully specified; D-Tyr1, Aib2, αMeF6, αMeL13, K17 conjugated to (2-[2-(2-Amino-ethoxy)-ethoxy]-acetyl)2-(γ-Glu)-CO-(CH2)18-CO2H, Aib20, C-terminal amide (NH2)
B7: Example 331 (peptide)
peptide: B3 peptide with L13X, K16E, A21E, E28A
modifications: Aib2, αMeL13, K17 conjugated to (2-[2-(2-Amino-ethoxy)-ethoxy]-acetyl)2-(γ-Glu)-CO-(CH2)18-CO2H, Aib20, C-terminal amide (NH2)
B8: Example 289 (peptide)
peptide: B3 peptide with L13X, A21E, E28A
modifications: Aib2, αMeL13, K17 conjugated to (2-[2-(2-Amino-ethoxy)-ethoxy]-acetyl)2-(γ-Glu)-CO-(CH2)18-CO2H, Aib20, C-terminal amide (NH2)
B9: Example 337 (peptide)
peptide: B3 peptide with Y1F, L13X, E28A
modifications: not fully specified; Aib2, αMeL13, K17 conjugated to (2-[2-(2-Amino-ethoxy)-ethoxy]-acetyl)2-(γ-Glu)-CO-(CH2)18-CO2H, Aib20, C-terminal amide (NH2)
B10: Example 332 (peptide)
peptide: B3 peptide with L13X, K16E, E28A
modifications: Aib2, αMeL13, K17 conjugated to (2-[2-(2-Amino-ethoxy)-ethoxy]-acetyl)2-(γ-Glu)-CO-(CH2)18-CO2H, Aib20, C-terminal amide (NH2)

Molecular target: human GLP-1 receptor (human, UniProt P43220 24-463)
Experiment: cell-based or functional assay

| Binder | hGLP1R GTPgS % Top [%] | hGLP1R GTPgS Rel EC50 [nM] |
| --- | --- | --- |
| B1 | 56.7 | 0.766 |
| B2 | 66.7 | 0.666 |
| B3 | 44.2 | 0.601 |
| B4 | 83.6 | 0.343 |
| B5 | 75.6 | 0.287 |
| B6 | 89.3 | 0.285 |
| B7 | 80.9 | 0.375 |
| B8 | 83.7 | 0.404 |
| B9 | 59.5 | 0.322 |
| B10 | 81.5 | 0.453 |

Molecular target: Pro-Link-tagged Human GLP-1R (human, UniProt P43220 24-463)
Experiment: cell-based or functional assay

| Binder | hGLP1R B-Arrestin2 % Top [%] | hGLP1R B-Arrestin2 Rel EC50 [nM] |
| --- | --- | --- |
| B1 | 26.1 | 6.08 |
| B2 | 21.3 | 6.74 |
| B3 | 25.4 | 19.9 |
| B4 | 63.4 | 4.73 |
| B5 | 41.6 | 3.79 |
| B6 | 73 | 5.31 |
| B7 | 44.3 | 12.8 |
| B8 | 51.3 | 12.4 |
| B9 | 34.1 | 17.4 |
| B10 | 45.6 | 17.1 |
